Consider nine sequences from the DeepSol protein solubility set.

The series is described as follows: soluble on expression in E. coli; label from the status in PepcDB or PDB records.
With “MKVLFLTANEFEDVELIYPYHRLKEEGHEVYIASFERGTITGKHGYSVKVDLTFDKVNPEEFDALVLPGGRAPERVRLNEKAVSIARKMFSEGKPVASICHGPQILISAGVLRGRKGTSYPGIKDDMINAGVEWVDAEVVVDGNWVSSRVPADLYAWMREFVKLLK”, the “soluble on expression in E. coli” value is reported as “soluble”.

For the sequence “MHIISLLLENEPGALSRVVGLFSQRNYNIESLTVAPTEDPTLSRLTLTTVGHDEVIEQITKNLNKLIEVVKLVDL”, the “soluble on expression in E. coli” value is on record as “soluble”.

Consider “MPPASLTFEPPSVVAVFATHAVLCWEQPRTPHTTSFAEHMAWEYQIEYNCSCRVRQQPYCATGSNTFVLLATPHEGETYYVRVVAKASFAGSTSGLVSAKAAFTASCNVAMPWRCSARPPVCVFDALYLSANVEAEDIAALSAARSSTIDNAAVLDGKSVCYTLEGDIAVRTYRMLYSGTAALPVGPARTVYYMVATTRLHTGKRTRAMELLSIMQREGASIVFCGIGDGGRLALCAALTFLSFLTTACPALCASVLCITYGTPRLLLKEGPRLLAHTLPLSGQLLHFTQLPLIEHTPFVSDTVALSQRGSGVAVDTPPLGYANGFYRNMLLGAQCRVTDWTGLHFRLSSPDELSTEAEEAEVFDVVGQLRALSELFFPSSLQWLSPSVTSVSCRTEGPLLHVSVEGLTCITALG”, for which the “soluble on expression in E. coli” value is “not soluble”.

Turning to “RPIGIYEKATPTHCTWLERLNFAKELGFDFVEMSIDERDERLARLDWSKEERLEVVKAIYETGVRIPSICFSGHRRYPLGSKDPVLEEKSLELMKKCIELAQDLGVRTIQLAGYDVYYEEKSPQTRQRFIKNLRKACDWAEEAQVVLAIEIMDDPFISSIEKYLAIEKEIDSPFLFVYPDIGNVSAWHNDIYSEFYLGHHAIAALHLKDTYAVTESSKGQFRDVPFGQGCVKWEEAFDILKETNYNGPFLIEMWSENCETVEETRAAIQEAQAFLYPLIKKAGLM”, the “soluble on expression in E. coli” value is listed as “not soluble”.

For “HDKVVVLEAKNGNVTFDHKKHAGVKGECKACHETEAGGKIAGMGKDWAHKTCTGCHKEMGKGPTKCGECHKK”, the “soluble on expression in E. coli” value was “soluble”.

Take “MGSDKIHHHHHHMAARNDDKYRGDTENKGFWTIDFGRSPVIGTAIHDGHFIRSDIASLMALSPEQRLREEDPFTGEMIARLTNRLVVHHSRFEIDLNRAADQAIYLKPEQSWGLEVWSEEPSQDAVRHSLDFHADYYAMLESVLSSVERRHGPFVVLDVHSYNHRRQGAGEPPTAQAEAPDINIGTFSMDRSRWNDVVSAVGEHFASATIGGRRLDVRENVAFQGKGEQTRFIHERFAENGCAIAIEFKKFFMDEWTGEPDRRVVSDIRETIAALQPVLEECLRSR”: the “soluble on expression in E. coli” value is on record as “not soluble”.

With “GMATSTDRTQEIQKLHELIKNIDYGMFTTVDDDGSLHSYPMSKSGDINSEATLWFFTYAGSHKVTEIEHHEQVNVSFSSPEQQRYVSISGTSQLVKDRNKMRELWKPELQTWFPKGLDEPDIALLKVNINQVNYWDSTSSFKPQTISF”, the “soluble on expression in E. coli” value is “soluble”.

For “MGSDKIHHHHHHMDFALEQYHSAKDLLIFELRKFNPIVLVSSTIVATYVLTNLRHMHLDEMGIRKRLSTWFFTTVKRVPFIRKMIDKQLNEVKDELEKSLRIVDRSTEYFTTIPSHSVGRTEVLRLAAIYDDLEGPAFLEGRVSGAVFNREDDKDEREMYEEVFGKFAWTNPLWPKLFPGVRIMEAEVVRMCCNMMNGDSETCGTMSTGGSISILLACLAHRNRLLKRGEKYTEMIVPSSVHAAFFKAAECFRIKVRKIPVDPVTFKVDLVKMKAAINKRTCMLVGSAPNFPFGTVDDIEAIGQLGLEYDIPVHVDACLGGFLLPFLEEDEIRYDFRVPGVSSISADSHKYGLAPKGSSVVLYRNKELLHNQYFCDADWQGGIYASATMEGSRAGHNIALCWAAMLYHAQEGYKANARKIVDTTRKIRNGLSNIKGIKLQGPSDVCIVSWTTNDGVELYRFHNFMKEKHWQLNGLQFPAGVHIMVTMNHTHPGLAEAFVADCRAAVEFVKSHKPSESDKTSEAAIYGLAQSIPDRSLVHEFAHSYIDAVYALTE”, the “soluble on expression in E. coli” value is “not soluble”.

For the sequence “MDAVQELERRIVELEIQSALQEDVIAGLNAMVAELRQTLDLQQAQLRLLYQKMQDRNPDAQEPYSLRDEIPPHY”, the “soluble on expression in E. coli” value is “not soluble”.
